doi:10.64898/2025.12.17.694835

How the values were obtained:
[1] = molecular target: HALOGluA2(R) (GluA2(R) subunit with HALO domain inserted between signal peptide and N-terminal domain) (rat) (UniProt P19491); test: FRET or BRET
[2] = molecular target: HALOGluA3 (GluA3 subunit with HALO domain inserted between signal peptide and N-terminal domain) (rat) (UniProt P19492); test: FRET or BRET
Sequence of HALOGluA3 (GluA3 subunit with HALO domain inserted between signal peptide and N-terminal domain) (rat) (P19492 23-888): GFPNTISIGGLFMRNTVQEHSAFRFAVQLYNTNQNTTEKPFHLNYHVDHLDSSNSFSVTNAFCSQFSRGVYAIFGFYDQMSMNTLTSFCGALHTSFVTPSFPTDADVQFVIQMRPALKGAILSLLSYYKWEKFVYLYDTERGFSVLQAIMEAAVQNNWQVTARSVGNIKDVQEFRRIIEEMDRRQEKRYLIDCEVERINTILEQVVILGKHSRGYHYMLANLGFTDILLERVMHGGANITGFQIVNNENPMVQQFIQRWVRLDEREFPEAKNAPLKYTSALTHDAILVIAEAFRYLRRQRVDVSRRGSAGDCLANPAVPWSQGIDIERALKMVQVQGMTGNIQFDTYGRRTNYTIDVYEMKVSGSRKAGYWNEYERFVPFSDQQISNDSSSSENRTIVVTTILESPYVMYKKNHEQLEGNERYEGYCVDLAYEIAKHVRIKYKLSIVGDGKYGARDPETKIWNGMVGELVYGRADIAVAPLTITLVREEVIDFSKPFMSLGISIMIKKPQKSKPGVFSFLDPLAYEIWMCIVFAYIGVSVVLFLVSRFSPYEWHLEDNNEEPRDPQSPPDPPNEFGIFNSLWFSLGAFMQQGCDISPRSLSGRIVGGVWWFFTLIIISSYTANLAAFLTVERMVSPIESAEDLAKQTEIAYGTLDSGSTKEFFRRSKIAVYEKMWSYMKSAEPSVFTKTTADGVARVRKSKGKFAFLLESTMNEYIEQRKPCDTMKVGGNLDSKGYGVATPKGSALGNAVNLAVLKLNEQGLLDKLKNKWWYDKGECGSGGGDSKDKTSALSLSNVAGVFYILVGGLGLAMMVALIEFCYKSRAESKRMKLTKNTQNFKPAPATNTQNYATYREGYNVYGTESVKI

Sequence of HALOGluA2(R) (GluA2(R) subunit with HALO domain inserted between signal peptide and N-terminal domain) (rat) (P19491 22-883): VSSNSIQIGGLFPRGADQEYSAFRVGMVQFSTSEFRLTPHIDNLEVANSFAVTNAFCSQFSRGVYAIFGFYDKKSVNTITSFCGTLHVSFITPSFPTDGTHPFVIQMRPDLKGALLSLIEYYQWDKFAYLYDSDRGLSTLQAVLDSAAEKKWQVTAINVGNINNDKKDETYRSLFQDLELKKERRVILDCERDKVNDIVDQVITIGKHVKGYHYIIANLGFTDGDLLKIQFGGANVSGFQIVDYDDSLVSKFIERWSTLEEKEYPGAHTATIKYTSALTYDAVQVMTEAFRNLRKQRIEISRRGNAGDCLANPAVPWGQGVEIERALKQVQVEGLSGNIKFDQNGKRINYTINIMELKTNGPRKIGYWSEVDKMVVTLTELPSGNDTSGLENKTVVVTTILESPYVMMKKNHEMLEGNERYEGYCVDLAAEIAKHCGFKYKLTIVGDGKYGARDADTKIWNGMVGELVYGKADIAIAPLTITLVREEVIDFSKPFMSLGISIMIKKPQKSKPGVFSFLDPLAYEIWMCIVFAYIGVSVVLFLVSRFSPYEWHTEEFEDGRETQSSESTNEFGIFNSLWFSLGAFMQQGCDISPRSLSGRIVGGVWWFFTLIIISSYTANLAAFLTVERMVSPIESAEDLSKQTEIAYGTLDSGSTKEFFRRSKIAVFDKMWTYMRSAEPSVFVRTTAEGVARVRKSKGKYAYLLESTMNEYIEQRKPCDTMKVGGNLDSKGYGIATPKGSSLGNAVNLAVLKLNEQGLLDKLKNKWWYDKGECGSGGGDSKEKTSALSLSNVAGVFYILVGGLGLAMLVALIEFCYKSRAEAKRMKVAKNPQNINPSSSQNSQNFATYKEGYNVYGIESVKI
Sequence of CFPGluA2(R) (GluA2(R) subunit with CFP inserted between signal peptide and N-terminal domain) (P19491 22-883): as above
Sequence of CFPGluA1 (GluA1 subunit with CFP inserted between signal peptide and N-terminal domain) (P19490 19-907): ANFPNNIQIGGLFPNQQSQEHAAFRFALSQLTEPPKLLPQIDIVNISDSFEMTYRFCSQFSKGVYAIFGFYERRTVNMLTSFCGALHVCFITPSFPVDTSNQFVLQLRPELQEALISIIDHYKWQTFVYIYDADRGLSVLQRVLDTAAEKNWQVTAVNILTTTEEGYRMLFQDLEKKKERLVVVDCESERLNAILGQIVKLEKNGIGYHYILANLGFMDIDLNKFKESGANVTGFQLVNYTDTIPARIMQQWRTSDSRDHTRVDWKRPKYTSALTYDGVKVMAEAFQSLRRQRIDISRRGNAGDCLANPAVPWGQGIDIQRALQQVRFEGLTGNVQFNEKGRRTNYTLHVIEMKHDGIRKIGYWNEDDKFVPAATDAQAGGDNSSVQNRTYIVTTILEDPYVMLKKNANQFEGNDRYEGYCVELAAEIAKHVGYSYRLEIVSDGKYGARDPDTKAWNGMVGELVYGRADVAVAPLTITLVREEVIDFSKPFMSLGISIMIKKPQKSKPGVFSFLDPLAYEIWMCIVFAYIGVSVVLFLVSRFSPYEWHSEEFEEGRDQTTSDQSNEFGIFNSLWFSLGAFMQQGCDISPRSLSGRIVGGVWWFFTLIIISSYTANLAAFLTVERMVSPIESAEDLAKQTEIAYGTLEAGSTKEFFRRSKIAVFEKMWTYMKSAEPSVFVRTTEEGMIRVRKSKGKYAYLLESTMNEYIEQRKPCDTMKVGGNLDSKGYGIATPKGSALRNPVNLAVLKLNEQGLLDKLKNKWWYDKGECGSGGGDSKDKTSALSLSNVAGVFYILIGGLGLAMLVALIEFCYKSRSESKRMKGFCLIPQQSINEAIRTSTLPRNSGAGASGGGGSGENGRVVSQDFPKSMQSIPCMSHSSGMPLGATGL

Row | Substance | CFP (donor) lifetime mean in the presence of the acceptor AF488 [1] | E FRET [1] | CFP (donor) lifetime mean in the presence of the acceptor AF488 [2] | E FRET [2]
1 | CFPGluA1 (GluA1 subunit with CFP inserted between signal peptide and N-terminal domain) (from UniProt P19490 19-907) (receptor) | 2.03 | 38.5% | – | –
2 | CFPGluA2(R) (GluA2(R) subunit with CFP inserted between signal peptide and N-terminal domain) (from UniProt P19491 22-883) (receptor) | – | – | 2.51 | 27%
